Article PMC13385800 (2026)
Values belong to the substance of their own block, whether it stands above or below them.

Key:
Assay in all cases: co-immunoprecipitation, mass spectrometry
[1] = target: GPS2 (endogenous, HEK293T); details: HEK293T cells; n = 3 independent transfections per mutant; read off a plot
[2] = target: HDAC3 (endogenous, HEK293T); details: HEK293T cells; n = 3 independent transfections per mutant; read off a plot
[3] = target: TBL1X (endogenous, HEK293T); details: HEK293T cells; n = 3 independent transfections per mutant; read off a plot
[4] = target: NCOR1 (endogenous, HEK293T) [Homo sapiens (Human).]; details: HEK293T cells; n = 3 independent transfections per mutant; read off a plot
[5] = target: endogenous SETD5 of Flp-In T-REx 293 and HEK293T cells [human (endogenous in Flp-In T-REx 293 and HEK293T)]; details: n = 3 independent transfections per mutant, read off a plot

Substance: EGFP-ANKRD11 full length (FL), wild type (from UniProt Q6UB99) L2605R
- other: log2 fold change (WT/mutant) [1]: 3.4 log2
- other: log2 fold change (WT/mutant) [2]: 7 log2
- other: log2 fold change (WT/mutant) [3]: 7.2 log2

Substance: EGFP-ANKRD11 full length (FL), wild type (from UniProt Q6UB99) S2475P
- other: log2 fold change (WT/mutant) [1]: 3.4 log2
- other: log2 fold change (WT/mutant) [2]: 7 log2
- other: log2 fold change (WT/mutant) [3]: 7.6 log2

Substance: EGFP-ANKRD11 full length (FL), wild type mutant E2522K [not stated] / NCOR1 (endogenous, HEK293T) [Homo sapiens (Human).] chain 1 E2522K
- screen value [4]: 2.9 log2

Substance: EGFP-ANKRD11 full length (FL), wild type mutant R2512Q [not stated] / NCOR1 (endogenous, HEK293T) [Homo sapiens (Human).] chain 1 R2512Q
- screen value [4]: 4.2 log2

Substance: EGFP-ANKRD11 full length (FL), wild type mutant R2523W [not stated] / NCOR1 (endogenous, HEK293T) [Homo sapiens (Human).] chain 1 R2523W
- screen value [4]: 7.4 log2

Substance: EGFP-ANKRD11 full length (FL), wild type mutant S2475P [not stated] / NCOR1 (endogenous, HEK293T) [Homo sapiens (Human).] chain 1 S2475P
- screen value [4]: 7.9 log2

Substance: EGFP-ANKRD11 full length (FL), wild type mutant S2475P [not stated] / endogenous SETD5 of Flp-In T-REx 293 and HEK293T cells [human (endogenous in Flp-In T-REx 293 and HEK293T)] chain 1 S2475P
- screen value [5]: 4.6 log2

Further lines, results first:

- other: log2 fold change (WT/mutant) [1]: 2.8 log2
- other: log2 fold change (WT/mutant) [2]: 2.9 log2
- other: log2 fold change (WT/mutant) [3]: 2.3 log2
Substance: EGFP-ANKRD11 full length (FL), wild type (from UniProt Q6UB99) E2522K

- other: log2 fold change (WT/mutant) [1]: 2.8 log2
- other: log2 fold change (WT/mutant) [2]: 5.9 log2
Substance: EGFP-ANKRD11 full length (FL), wild type (from UniProt Q6UB99) R2523W

- screen value [5]: 2.7 log2
Substance: EGFP-ANKRD11 full length (FL), wild type mutant E2522K [not stated] / endogenous SETD5 of Flp-In T-REx 293 and HEK293T cells [human (endogenous in Flp-In T-REx 293 and HEK293T)] chain 1 E2522K

- screen value [4]: 7.9 log2
Substance: EGFP-ANKRD11 full length (FL), wild type mutant L2605R [not stated] / NCOR1 (endogenous, HEK293T) [Homo sapiens (Human).] chain 1 L2605R

- screen value [5]: 4.6 log2
Substance: EGFP-ANKRD11 full length (FL), wild type mutant L2605R [not stated] / endogenous SETD5 of Flp-In T-REx 293 and HEK293T cells [human (endogenous in Flp-In T-REx 293 and HEK293T)] chain 1 L2605R

- screen value [5]: 4 log2
Substance: EGFP-ANKRD11 full length (FL), wild type mutant R2512Q [not stated] / endogenous SETD5 of Flp-In T-REx 293 and HEK293T cells [human (endogenous in Flp-In T-REx 293 and HEK293T)] chain 1 R2512Q

- screen value [5]: 5.6 log2
Substance: EGFP-ANKRD11 full length (FL), wild type mutant R2523W [not stated] / endogenous SETD5 of Flp-In T-REx 293 and HEK293T cells [human (endogenous in Flp-In T-REx 293 and HEK293T)] chain 1 R2523W
